Laboratory results reported in patent publication US20160075778A1 (Regeneron, published 2016).
Positions count from the first letter of the chain named.

B1: H1H059P (antibody, V domains shown)
VH: QVQLVESGGGVVQPGRSLRLSCAASGFAFSNYGMHWVRQAPGKGLEWVTFISYDGSNKYYADSVKGRFTISRDNSKNTLYLQVNSLRAEDTAVYYCAKEAVLAALFDYWGQGTLVTVSS
VL: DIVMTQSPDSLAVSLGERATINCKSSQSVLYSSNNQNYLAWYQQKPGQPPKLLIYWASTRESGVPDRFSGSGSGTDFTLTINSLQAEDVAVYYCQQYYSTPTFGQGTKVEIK
notes: The antibody was captured by an anti-human Fc antibody in SPR
B2: H4H10238P (antibody, V domains shown)
VH: QVQLVESGGGVVQPGRSLRLSCAASGFTFSSYGMHWVRQAPVKGLEWVAFISNDKSNKYYADSLKGRFTISRDNSKNTLYLQMNSLTAEDTAVYYCAKESILAALFDYWGQGTLVTVSS
VL: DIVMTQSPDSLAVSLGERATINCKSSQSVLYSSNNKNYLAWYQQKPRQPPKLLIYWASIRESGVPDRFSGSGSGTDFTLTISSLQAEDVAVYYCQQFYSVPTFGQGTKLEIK
B3: H4H10236P (antibody, V domains shown)
VH: B2 VH with A40T, V42G, N53Y, K55G, S56N, L64V, Y80F, T87R
VL: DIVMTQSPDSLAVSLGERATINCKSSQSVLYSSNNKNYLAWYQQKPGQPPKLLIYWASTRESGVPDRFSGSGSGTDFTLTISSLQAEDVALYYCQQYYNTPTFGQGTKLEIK
B4: H4H10256P (antibody, V domains shown)
VH: B2 VH with S30R, S31T, N53K, K55G, N57D, A61V, L64V, Y80F
VL: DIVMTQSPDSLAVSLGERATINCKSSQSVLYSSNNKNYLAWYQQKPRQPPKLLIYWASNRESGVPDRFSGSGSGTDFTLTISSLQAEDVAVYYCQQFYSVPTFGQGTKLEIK
B5: H4H10223P (antibody, V domains shown)
VH: B2 VH with S30N, S31T, K58T, Y59F, L64V, Y80F, Q82E
VL: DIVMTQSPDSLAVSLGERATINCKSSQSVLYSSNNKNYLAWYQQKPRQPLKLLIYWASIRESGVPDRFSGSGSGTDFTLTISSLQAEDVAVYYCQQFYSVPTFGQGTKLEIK
notes: Kappa light chain variable region
B6: H4H10237P (antibody, V domains shown)
VH: B2 VH with N53Y, K55G, L64V
VL: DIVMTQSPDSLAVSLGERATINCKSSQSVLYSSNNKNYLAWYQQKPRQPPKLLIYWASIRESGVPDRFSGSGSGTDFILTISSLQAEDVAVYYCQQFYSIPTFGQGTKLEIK
B7: H4H10231P (antibody, V domains shown)
VH: B2 VH with S31T, Y32F, S56N, Y59F, L64V, K76R, N77D, A88P
VL: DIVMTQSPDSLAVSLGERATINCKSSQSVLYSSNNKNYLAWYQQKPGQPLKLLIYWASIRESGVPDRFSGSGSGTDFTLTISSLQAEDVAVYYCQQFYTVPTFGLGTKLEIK
B8: H4H10270P (antibody, V domains shown)
VH: B2 VH with L64V, Y108S
VL: DIVMTQSPDSLAVSLGERATINCKSSQSVLYSSNNKNYLAWYQQKPRQPPKLLIYWASIRESGVPDRFSGSGSGADFTLTISSLQAADVAVYYCQQFYSVPTFGQGTKLEIK
B9: H4H10250P (antibody, V domains shown)
VH: B2 VH with N53F, K55G, A61T, L64V, V93I
VL: B8 VL with K51N, A75T, A87E, V91F, V100I
B10: H4H10232P (antibody, V domains shown)
VH: QVQLVESGGGVVQPGRSLRLSCVASGFTFRNYDMHWVRQAPGKGLEWVAVTSSDGLNKFYSDSVKGRFTISRDNSKNTLSLQITGLRAEDTAVYYCAKESILAALFDYWGQGTLVTVSS
VL: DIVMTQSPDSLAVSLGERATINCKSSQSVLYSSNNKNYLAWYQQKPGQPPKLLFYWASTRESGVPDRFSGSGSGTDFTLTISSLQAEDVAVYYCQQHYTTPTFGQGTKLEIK

Biological target: T1, human glucagon (human)
T1 construct: Bought peptide (Phoenix Pharmaceuticals, #028-02); 29 residue hormone; also called GCG; human GCG
Experiment: SPR Biacore 4000, antibody captured by anti-human Fc, GCG injected, 25 C
Experimental: (§1) Experiments were performed at 25° C. and 37° C.
(§2) Kinetic association (kₐ) and dissociation (kd) rate constants were determined by processing and fitting the data to a 1:1 binding model using Scrubber 2.0c curve fitting software. Binding dissociation equilibrium constants (KD) and dissociative half-lives (t½) were calculated from the kinetic rate constants as: […]

T1 sequence (peptide, as listed by the source): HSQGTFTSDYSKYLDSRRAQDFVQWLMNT

Question: Which Kd does the source give for B1 here?
Answer: The Kd was 0.715 nM.

Question: What about the koff of the same binder?
Answer: Its koff is 0.00178 s⁻¹.

Question: What about the kon of the same binder?
Answer: The kon was 2.5e+06 M⁻¹ s⁻¹.

Question: What about the t½ of the same binder?
Answer: The t½ was 6 min.

Question: With B2 as the binder, how does the Kd read?
Answer: Its Kd is 0.16 nM.

Question: And the koff?
Answer: Its koff is 0.00062 s⁻¹.

Question: What about the kon of the same binder?
Answer: Its kon is 3.89e+06 M⁻¹ s⁻¹.

Question: What about the t½ of the same binder?
Answer: Its t½ is 19 min.

Question: For B3, which Kd is on record?
Answer: The Kd was 0.242 nM.

Question: What about the koff of the same binder?
Answer: The koff was 0.000746 s⁻¹.

Question: And the kon?
Answer: Its kon is 3.08e+06 M⁻¹ s⁻¹.

Question: What about the t½ of the same binder?
Answer: The t½ was 15 min.

Question: What does the source list for B4?
Answer: Kd: 0.0753 nM; koff: 0.000582 s⁻¹; kon: 7.72e+06 M⁻¹ s⁻¹; t½: 20 min

Question: What does the source list for B5?
Answer: Kd: 0.0578 nM; koff: 0.000541 s⁻¹; kon: 9.36e+06 M⁻¹ s⁻¹; t½: 21 min

Question: For B6, which Kd is on record?
Answer: The Kd was 0.208 nM.

Question: And the koff?
Answer: The koff was 0.00103 s⁻¹.

Question: What about the kon of the same binder?
Answer: The kon was 4.96e+06 M⁻¹ s⁻¹.

Question: What about the t½ of the same binder?
Answer: Its t½ is 11 min.

Question: What does the source list for B7?
Answer: Kd: 0.0927 nM; koff: 0.000685 s⁻¹; kon: 7.39e+06 M⁻¹ s⁻¹; t½: 17 min

Question: With B8 as the binder, how does the Kd read?
Answer: The Kd was 0.153 nM.

Question: What about the koff of the same binder?
Answer: Its koff is 0.000732 s⁻¹.

Question: And the kon?
Answer: The kon was 4.8e+06 M⁻¹ s⁻¹.

Question: And the t½?
Answer: Its t½ is 16 min.

Question: For B9, which Kd is on record?
Answer: The Kd was 0.283 nM.

Question: What about the koff of the same binder?
Answer: The koff was 0.000939 s⁻¹.

Question: What about the kon of the same binder?
Answer: Its kon is 3.32e+06 M⁻¹ s⁻¹.

Question: What about the t½ of the same binder?
Answer: The t½ was 12 min.

Question: What does the source list for B10?
Answer: Kd: 0.0724 nM; koff: 0.000231 s⁻¹; kon: 3.19e+06 M⁻¹ s⁻¹; t½: 50 min

Biological target: T1, human glucagon
Experiment: cell-based or functional assay

Question: For B1, which “IC50, inhibition of GCG activation of HEK293/CRE-luc/hGCGR cells (luciferase reporter, 40 pM GCG)” value is on record?
Answer: The value was 9.1e-10 M.

Question: With B2 as the binder, how does the “IC50, inhibition of GCG activation of HEK293/CRE-luc/hGCGR cells (luciferase reporter, 40 pM GCG)” value read?
Answer: The value was 1.8e-11 M.

Question: For B3, which “IC50, inhibition of GCG activation of HEK293/CRE-luc/hGCGR cells (luciferase reporter, 40 pM GCG)” value is on record?
Answer: The value was 2.5e-10 M.

Question: For B4, which “IC50, inhibition of GCG activation of HEK293/CRE-luc/hGCGR cells (luciferase reporter, 40 pM GCG)” value is on record?
Answer: Its value is 1.8e-11 M.

Question: For B5, which “IC50, inhibition of GCG activation of HEK293/CRE-luc/hGCGR cells (luciferase reporter, 40 pM GCG)” value is on record?
Answer: Its value is 9.5e-12 M.

Question: With B6 as the binder, how does the “IC50, inhibition of GCG activation of HEK293/CRE-luc/hGCGR cells (luciferase reporter, 40 pM GCG)” value read?
Answer: The value was 3.4e-11 M.

Question: For B7, which “IC50, inhibition of GCG activation of HEK293/CRE-luc/hGCGR cells (luciferase reporter, 40 pM GCG)” value is on record?
Answer: Its value is 7.3e-12 M.

Question: How did the “IC50, inhibition of GCG activation of HEK293/CRE-luc/hGCGR cells (luciferase reporter, 40 pM GCG)” value turn out when B8 was run?
Answer: Its value is 2.2e-11 M.

Question: With B9 as the binder, how does the “IC50, inhibition of GCG activation of HEK293/CRE-luc/hGCGR cells (luciferase reporter, 40 pM GCG)” value read?
Answer: Its value is 3.4e-11 M.

Question: For B10, which “IC50, inhibition of GCG activation of HEK293/CRE-luc/hGCGR cells (luciferase reporter, 40 pM GCG)” value is on record?
Answer: Its value is 2.3e-11 M.

Biological target: T1, human glucagon
Experiment: SPR Biacore 4000, antibody captured by anti-human Fc, GCG injected, 37 C
Experimental: as §1, §2

Question: For B1, which Kd is on record?
Answer: The Kd was 4.78 nM.

Question: What about the koff of the same binder?
Answer: Its koff is 0.0236 s⁻¹.

Question: What about the kon of the same binder?
Answer: The kon was 4.9e+06 M⁻¹ s⁻¹.

Question: What about the t½ of the same binder?
Answer: The t½ was 0.5 min.

Question: How did the Kd turn out when B2 was run?
Answer: The Kd was 0.555 nM.

Question: And the koff?
Answer: The koff was 0.00274 s⁻¹.

Question: What about the kon of the same binder?
Answer: The kon was 4.94e+06 M⁻¹ s⁻¹.

Question: What about the t½ of the same binder?
Answer: The t½ was 4 min.

Question: B3 was tested. Which Kd did it give?
Answer: The Kd was 2.08 nM.

Question: And the koff?
Answer: Its koff is 0.0088 s⁻¹.

Question: What about the kon of the same binder?
Answer: Its kon is 4.25e+06 M⁻¹ s⁻¹.

Question: What about the t½ of the same binder?
Answer: The t½ was 1 min.

Question: B4 was tested. Which Kd did it give?
Answer: The Kd was 0.314 nM.

Question: And the koff?
Answer: The koff was 0.00248 s⁻¹.

Question: What about the kon of the same binder?
Answer: The kon was 7.9e+06 M⁻¹ s⁻¹.

Question: And the t½?
Answer: The t½ was 5 min.

Question: Which results are given for B5?
Answer: Kd: 0.347 nM; koff: 0.00223 s⁻¹; kon: 6.4e+06 M⁻¹ s⁻¹; t½: 5 min

Question: B6 was tested. Which Kd did it give?
Answer: The Kd was 0.907 nM.

Question: What about the koff of the same binder?
Answer: Its koff is 0.00683 s⁻¹.

Question: What about the kon of the same binder?
Answer: The kon was 7.53e+06 M⁻¹ s⁻¹.

Question: And the t½?
Answer: The t½ was 2 min.

Question: With B7 as the binder, how does the Kd read?
Answer: Its Kd is 1.01 nM.

Question: What about the koff of the same binder?
Answer: Its koff is 0.00245 s⁻¹.

Question: What about the kon of the same binder?
Answer: The kon was 2.4e+06 M⁻¹ s⁻¹.

Question: What about the t½ of the same binder?
Answer: The t½ was 5 min.

Question: For B8, which Kd is on record?
Answer: The Kd was 0.559 nM.

Question: What about the koff of the same binder?
Answer: The koff was 0.00378 s⁻¹.

Question: And the kon?
Answer: The kon was 6.77e+06 M⁻¹ s⁻¹.

Question: And the t½?
Answer: Its t½ is 3 min.

Question: For B9, which Kd is on record?
Answer: The Kd was 1.27 nM.

Question: And the koff?
Answer: Its koff is 0.00708 s⁻¹.

Question: What about the kon of the same binder?
Answer: The kon was 5.58e+06 M⁻¹ s⁻¹.

Question: What about the t½ of the same binder?
Answer: Its t½ is 2 min.

Question: What does the source list for B10?
Answer: Kd: 0.318 nM; koff: 0.00147 s⁻¹; kon: 4.61e+06 M⁻¹ s⁻¹; t½: 8 min
